Broadly, the Kd is the equilibrium constant for the complex coming apart. A high value points to lower affinity.

We go through 1 molecule from PMC4512625 (2015).

Ends that are not written are not given here.

Assay [1] addresses human SPAK 452-547 with L491A (human, UniProt Q9UEW8 452-545, L491A). The assay is described as follows: FP.
The next assay deals with human SPAK 452-547(end) (human, UniProt Q9UEW8 452-545). The assay is described as follows: FP.

B1: Lumio-Green-labelled RFXV-motif-possessing peptide derived from WNK4 (EP4543) (peptide)
peptide: CCPGCCGGGGSEEGKPQLVGRFQVTSSK
modifications: not fully specified (N-terminus); cysteine pairing not given here; also: Lumio Green fluorophore bound to the N-terminal CCPGCC linker
With B1, the Kd in assay [1] was 88.2 µM; with human SPAK 452-547(end), 0.6 µM.
